Reference: US7994133B2, “Isozyme-specific antagonists of protein kinase C” (The Board of Trustees of the Leland Stanford Junior …, priority 2003, dated 2011)
Substitutions are numbered along the chain they refer to.

Key:
CHO cells [1] = test: Real-time confocal imaging of PMA-induced εPKC translocation with mathematical modeling; type: cell-based; settings: for time after PMA stimulation at which the enzyme was found at the cell periphery: YFP-εPKC D(86)A and CFP-εPKC Wt co-transfected in the same cell; for C3 / C5 / C1: constant of bi-exponential fit; for C1: level of εPKC in the cytosol at steady state; for k − 2: rate of detachment from the membrane; for k1 = C5: rate of εPKC opening in the cytosol
Method: (§1) CHO cells were grown on glass coverslips, and serum-starved as described in Example 4. For each experiment, cells were transferred to a commercially available metal coverslip holder (Molecular Probes) in which the coverslip formed the bottom of a 1 ml bath. The media was then replaced with extracellular buffer (120 mM NaCl, 5 mM KCl, 1.5 mM CaCl2, 1.5 mM MgCl2, 20 mM HEPES and 30 mM glucose). Cells were stimulated by either PMA (100 nM), or with ATP (1 mM) in extracellular buffer. Fluorescence images of GFP-tagged constructs were obtained using the 488 nm excitation line of a laser scanning confocal microscope (Pascal, Zeiss) and emission was collected through a 505-550 nm band pass filter. Cells were imaged on the stage of an inverted microscope (Axiovert 100M) using a 40× Zeiss Plan-apo oil immersion objective with 1.2 numerical aperture (NA). For dual color imaging of CFP and YFP fusion proteins, a spinning disk Nipkow confocal microscope was used. Cells were viewed using an inverted Olympus IX70 microscope with a 40× oil immersion Olympus objective (1.35NA) and images were acquired with a CCD camera (Hamamatsu) and 2×2 pixel binning. CFP was excited with the 442 nm laser line of a helium-cadmium laser (Kimmon) whereas YFP was imaged with the 514 nm line of an argon ion laser (Melles-Griot). To selectively photobleach YFP labeled proteins in local regions of the cytoplasm for FRAP experiments, the 514 nm line of an Enterprise laser (Coherent) at maximal power (˜400 mW) was used. For these experiments, a 60× oil immersion objective was used (1.4NA). Under these conditions, and by placing an iris in the beam path, it was possible to bleach 80% of the YFP fluorescence in 500 ms in an area of the cytosol measuring approximately 35 um2. Real time confocal images were acquired every 10-15 seconds for 20 minutes for experiments utilizing PMA, and every 5 seconds for a total duration of 3 minutes in the case of cells stimulated with ATP. Reagents were added to the cell chamber after the fifth image in each time series. […] All images were acquired at room temperature. Images were exported as 12 or 16 bit files and changes in fluorescence intensity were measured using MetaMorph® data analysis software (Universal Imaging Corp.). To monitor the translocation of PKC, a small region of interest was selected in the cytosol of each cell and fluorescence intensity values graphed against time after subtraction of background values and normalized so that the initial fluorescence was 100%. Averages of 10-15 cells from three independent experiments were used. To determine statistical significance, a 1 tail type 2 T-test (Microsoft excel) was used.
Mathematical modeling was obtained from data of cells expressing similar levels of the different εPKC ΨεRACK mutants. Non-linear least squares curve fitting analysis was performed using the EViews software (QMS) and differential equation analysis was performed using Berkeley Madonna™. All other methods for this Example were performed as described, for example, in Examples 4 and 6.
Fluorescence time courses were analyzed by a non-linear regression analysis with single and biexponential equations (1 and 2) as previously done by Nalefski and Newton Nalefski, E. A. & Newton, A. C., Biochemistry 40:13216-13229 (2001)], where I(t) is the concentration of observed molecules in the cytosol at time (t), and C1-5 are constants. I(t)=C1+C2e^(−C3(t)) 1. I(t)=C1+C2e^(−C3(t))+C4e^(−C5(t)) 2. Residual error graphs obtained using single exponential equations (FIG. 8A) and using biexponential equations (FIG. 8B) for the D(86)A εPKC mutant translocation process is shown in FIGS. 8A-8D. […] This process can be described as follows:
The value of C1 corresponds to the level of εPKC in the cytosol at steady state. It was next determined whether the hypothesis that the values obtained for C1 and C3 of D(86)A and Wt εPKCs are statistically equivalent. […]

CHO cells [2] = test: Real-time confocal imaging of ATP-induced εPKC translocation; type: cell-based; settings: 1 mM ATP; for time after stimulation at which translocation was apparent: GFP fusion
Method: as §1
It was next determined whether differences in translocation rates of the different εPKCs were also observed when translocation was stimulated via receptor signaling rather than by PMA. ATP has been previously used to activate PKC in CHO cells by stimulating purinergic G protein-coupled receptors [Maasch, C. et al., FASEB J. 14:1653-1663 (2000)]. All methods for this Example were performed as described, for example, in Examples 4, 6 and 7.

[3] = rate of closing in the cytosol, assumed negligible
[4] = rate of εPKC binding to the membrane, calculated with k-1 negligible

B1: D(86)A: εPKC mutant wherein D at position 86 of ΨεRACK on εPKC is substituted with an A (protein)
chain: MVVFNGLLKIKICEAVSLKPTAWSLRHAVGPRPATFLLDPYIALNVDDSRIGQTATKQKTNSPAWHDEFVTDVCNGRKIELAVFHAAPIGYDDFVANCTIQFEELLQNGSRHFEDWIDLEPEGRVYVIIDLSGSSGEAPKDNEERVFRERMRPRKRQGAVRRRVHQVNGHKFMATYLRQPTYCSHCRDFIWGVIGKQGYQCQVCTCVVHKRCHELIITKCAGLKKQETPDQVGSQRFSVNMPHKFGIHNYKVPTFCDHCGSLLWGLLRQGLQCKVCKMNVHRRCETNVAPNCGVDARGIAKVLADLGVTPDKITNSGQRRKKLIAGAESPQPASGGSPSEEDRSKSAPTSPCDQEIKELENNIRKALSFDNRGEEHRAASSPDGQLMSPGENGEVRQGQAKRLGLDEFNFIKVLGKGSFGKVMLAELKGKDEVYAVKVLKKDVILQDDDVDCTMTEKRILALARKHPYLTQLYCCFQTKDRLFFVMEYVNGGDLMFQIQRSRKFDEPRSRFYAAEVTSALMFLHQHGVIYRDLKLDNILLDAEGHCKLADFGMCKEGILNGVTTTTFCGTPDYIAPEILQELEYGPSVDWWALGVLMYEMMAGQPPFEADNEDDLFESILHDDVLYPVWLSKEAVSILKAFMTKNPHKRLGCVASQNGEDAIKQHPFFKEIDWVLLEQKKIKPPFKPRIKTKRDVNNFDQDFTREEPVLTLVDEAIVKQINQEEFKGFSYFGEDLMP
- rate of translocation (decrease of fluorescence in the cytoplasm) (CHO cells [1]; 100 nM PMA, GFP fusion): faster rate
- time at which translocation to the cell periphery became apparent (CHO cells [1]; 100 nM PMA, GFP fusion): within one minute
- time after PMA stimulation at which the enzyme was found at the cell periphery (CHO cells [1]; 100 nM PMA): 1.5 min
- (k2 + k − 2) = C3 (CHO cells [1]; calculated with k-1 negligible): 0.016 ± 0.001
- k − 2/(k2 + k − 2) = C1/100 (CHO cells [1]; calculated with k-1 negligible): 0.306 ± 0.002
- C3 (CHO cells [1]; 100 nM PMA): 0.016 ± 0.001
- C5 (CHO cells [1]; 100 nM PMA): 0.040 ± 0.007
- C1 (CHO cells [1]; 100 nM PMA): 30.59 ± 0.286
- k − 1 (CHO cells [1]; [3]): ~0
- k − 2 (CHO cells [1]; calculated with k-1 negligible): 0.005 ± 0.0004
- k2 (CHO cells [1]; [4]): 0.011 ± 0.003
- k1 = C5 (CHO cells [1]; calculated with k-1 negligible): 0.040 ± 0.007
- time after stimulation at which translocation was apparent (CHO cells [2]): 10 s

B2: Wt: wild type εPKC, human construct (protein)
chain: B1 chain with A86D
- rate of translocation (decrease of fluorescence in the cytoplasm) (CHO cells [1]; 100 nM PMA, GFP fusion): slower rate
- time at which translocation to the cell periphery became apparent (CHO cells [1]; 100 nM PMA, GFP fusion): 2 to 3 min
- time after PMA stimulation at which the enzyme was found at the cell periphery (CHO cells [1]; 100 nM PMA): > 10 min
- (k2 + k − 2) = C3 (CHO cells [1]; calculated with k-1 negligible): 0.016 ± 0.004
- k − 2/(k2 + k − 2) = C1/100 (CHO cells [1]; calculated with k-1 negligible): 0.305 ± 0.010
- C3 (CHO cells [1]; 100 nM PMA): 0.016 ± 0.004
- C5 (CHO cells [1]; 100 nM PMA): 0.009 ± 0.001
- C1 (CHO cells [1]; 100 nM PMA): 30.46 ± 0.991
- k − 1 (CHO cells [1]; [3]): ~0
- k − 2 (CHO cells [1]; calculated with k-1 negligible): 0.005 ± 0.0011
- k2 (CHO cells [1]; [4]): 0.011 ± 0.002
- k1 = C5 (CHO cells [1]; calculated with k-1 negligible): 0.009 ± 0.001
- time after stimulation at which translocation was apparent (CHO cells [2]): 10 s

B3: D(86)N: εPKC mutant wherein D at position 86 of ΨεRACK in εPKC is substituted with an N (protein)
chain: B1 chain with A86N
- steady state level of fluorescence in the cytoplasm (CHO cells [1]; 100 nM PMA, GFP fusion): higher level
- time at which translocation to the cell periphery became apparent (CHO cells [1]; 100 nM PMA, GFP fusion): 5 min
- C3 (CHO cells [1]; 100 nM PMA): 0.010 ± 0.0003
- C5 (CHO cells [1]; 100 nM PMA): 0.034 ± 0.004
- C1 (CHO cells [1]; 100 nM PMA): 38.38 ± 0.254
- k2 (CHO cells [1]; rate of binding to the membrane, simulations using differential equations): 0.01138
- k − 1 (CHO cells [1]; rate of closing, simulations using differential equations): 0.005
- k − 2 (CHO cells [1]; simulations using differential equations): 0.0052
- k1 (CHO cells [1]; rate of opening, simulations using differential equations, k1 = C5 not valid): 0.0135
- steady state level compared with D(86)A or Wt (CHO cells [2]): significantly higher levels
- translocation rate in comparison to wild type (CHO cells [2]): slower translocation rate
- time after stimulation at which translocation was apparent (CHO cells [2]): 40 s
